Where two headings read alike, the source gives them in different places.
Experiments:
[1] = test system: Control lentivirus without spike; assay: filter; details: three identical arms joined by Trebler, dot blot
[2] = target: Influenza hemagglutinin H5N1-HA (Influenza A virus) (UniProt Q8QPL1); assay: filter
[3] = target: Influenza hemagglutinin H3N2-HA (Influenza A virus) (UniProt P03438); assay: filter; details: dot blot
[4] = target: Influenza hemagglutinin H3N2-HA (Influenza A virus) (UniProt P03438); assay: BLI
[5] = target: Influenza hemagglutinin H1N1-HA (Influenza A virus) (UniProt Q289M7)
[6] = target: Troponin I (cardiac) (UniProt P19429); assay: filter

In the case of “TTACGTCAAGGTGTCACTCCGTAGGGTTTGGCTCCGGGCCTGGCGTCGGTCGTCTCTCGCGAAGCATCTCTTTGGCGTGTTTTTTTTTTTTTTT [TMSA52]”, the Kd [1] is reported as > 0.5 nM.

For “GGGTTTGGGTTGGGTTGGGTTTTTGGGTTTGGGTTGGGTTGGGAAAAATTTTTCTCTCGC [Trimeric (trident) RHA06]”, the Kd [2] was 0.13 nM, the Kd ([3]; three identical arms (SEQ 12) joined by Trebler, root TTTTT-Biotin, RT) was 0.09 nM and the Kd ([4]; three identical arms (SEQ 12) joined by Trebler, root TTTTT-Biotin) was 0.12 nM. For the same sequence, the Kd [5] was 0.07 nM.

Work on “GGGTTTGGGTTGGGTTGGGTTTTTGGGTTTGGGTTGGGTTGGGAAAAATTTTTCTCTCGC [Trident RHA06 + antisense 2:1]” yielded a Kd ([3]; Trebler-joined arms, antisense DNA of RHA06 hybridised at AS:aptamer 2:1, two arms blocked) of 7.9 nM.

“GGGTTTGGGTTGGGTTGGGTTTTTGGGTTTGGGTTGGGTTGGGAAAAATTTTTCTCTCGC [Trident RHA06 + antisense 1:1]” showed a Kd ([3]; Trebler-joined arms, antisense DNA of RHA06 hybridised at AS:aptamer 1:1, one arm blocked) of 0.31 nM.

Work on “GGGTTTGGGTTGGGTTGGGTTTTTGGGTTTGGGTTGGGTTGGGAAAAA [RHA06]” yielded a Kd [4] of 8 nM.

Work on “GGCAGCAGGAAGACAAGACATGGGTGGCGGGGACGGGGCGATGGGAACTTAGATTGCTAGTGGTTCTGTGGTTGCTCTGTTTTTTCTCTCGC [Trimeric (trident) TnAp1]” yielded a Kd ([6]; three identical arms joined by Trebler, root TTTTT-Biotin) of 4 nM.

In the case of “GGCAGCAGGAAGACAAGACATGGGTGGCGGGGACGGGGCGATGGGAACTTAGATTGCTAGTGGTTCTGTGGTTGCTCTGT [TnAp1]”, the Kd [6] is reported as 125 nM.
